In the DeepSol protein solubility set:

Assay: soluble on expression in E. coli; label from the status in PepcDB or PDB records

Row | Sequence | soluble on expression in E. coli
1 | GPGSMLLMPFPLVPSPPPTRLSGHLTPVALVGVLVCASPRCAPKPRPRPWNASHTHTHTHTSPRPLIAHTVSLCVSVVRKHLFFFRRFLRLPPSPNRKRNQLTGAAMLTRRAVSSAVGAAMVTSSSVSMQRRYDHDRWYGHALELDTHNYKFNGEPPSWMKTRAKTEEETSFAKSVLPHIDFASSYECLLFDADRLNTNLNRKEFGNEIKYRLEKQANTVARAQQLLRDKKAGTGPDAEKVENTLIARIFDEEHVQAEMKYVKCIRANELAEDNRLDILPGGSPNSLREKTRWNLNTELHPADRAEIGARLTAWLPEKYHIVYFDDFQTVAANDATARKEMLEIVESVQKEYTAEAKEGGYESDLKEAVAELMDDVDPTRTITMEAIKSCKDLQQLEDWSRQVHEYNGDDRIIAIYARAAEITKNVEHQALVRQMREWRKLATKNESKL | not soluble
2 | MISAQSLTRPQLRRQLRKARRVLTRSQQRAAARGLYQQLAQHPLFRRARHVSLYLPMDGEIDPRLLLREAQRRGKATYLPVLNAWPRTRMVFQRVRPGEKFIPNRFRIPEPRINRTKQRPVWALDLVLMPLVGFDDEGGRLGMGGGFYDRSLAYLARRKTWRKPALLGLAHECQKVDRLAQAIWDVPLQGTVSDKQWYLTQRLLEHHHHHH | not soluble
3 | MNSTFIVNFVGKATPATIKQLAAVTHENGGKWLISKVNFIEDSVAAVIKIELPADNASTVKQAFQTYPSLLVEITDADPHVHKSDAVYKVRLDANDRAGIVNEITHLLDGQGISILDMDCQRVFIAGGGGISSSLFTANVAMRLPVNIEIDDVINELEALSEDTRVTLEA | not soluble
4 | MFRVITRGAHTAASRQALIEKIIRVDHAGELGADRIYAGQLAVLQGSSVGSVIKKMWDEEKEHLDTMERLAAKHNVPHTVFSPVFSVAAYALGVGSALLGKEGAMACTIAVEELIGQHYNDQLKELLADDPETHKELLKILTRLRDEELHHHDTGVEHDGMKAPAYSALKWIIQTGCKGAIAIAEKI | not soluble
5 | MVLTEDFGYPLSRIKLEYEVTFGREKKRADIVIFDKQQTDSPYIIIEVKKPKLKDGKEQLKSYCNATGAPIGVWSNGKSISYYHRKDPNYFEDISNIPRADQKLSDILSERWTIADLIEKDKLISERKSLKDLILEMEDEVLAGAGVDVFEEVFKLIFTKLFDEMESGRNNERNLEFRNYGDTETELKERIQNLFDKARDKWEGVFSPDAKIQLTPSHLSVCVASLQDVKLFNSNLDVVDEAFEYLINKSSKGEKGQYFTPRYVIDMCVKMLNPTANEKMIDTASGSCGFPVHTIFHVWENILKEKGLERSHLFTLEQKPAECTDYVNDNVFAIDFDEKAVRVARTLNLIAGDGQTNVLHLNTLDYERWEQNLDSEDWQDTYFEGWKKLKKLRTRKDSYRDFTFDIVMANPPFAGEVKESRILAKYDMSRSMSLEKVKIAPKGATIVEGEPTFSEALANTGETIYQMSDGTYRKTKLKQAGNMSRDILFVERNLDFLKPGGRMAIVLPQGRFNNSSDKALREYIADRCRILAVVGLHGNVFKPHTGTKTSVLFVQKWDEELCPRVEDYNIFFATMQEPSKDNSGDKIYRSTTNEEGENVPLLDTHGHLIVKHDLFNHDGLTEDGIAEAFAEFAKKERLSFFADAPLTK | not soluble
6 | TILVAIANDSVSPAVIDTAVRLADGLDEELYVVHLVDENTADGTAMQLRDEMRDRFRDATVVATVAIEHVGRSAMRSGTRIGNELLELAADVDVQHIVMGHEPKGLAGRLREGDAAVAVIDAADVPVTIVPEG | not soluble
7 | EVVKRDRIRNKDRPAMQLYQPGARSRNRLCPPDDSTKSGDSAAERKQESGISHRKEGGEE | soluble
8 | MTKKSTKSEAASKTKKSGVPETGAQGVRAGGADHADAAHLGTVNNALVNHHYLEEKEFQTVAETLQRNLATTISLYLKFKKYHWDIRGRFFRDLHLAYDEFIAEIFPSIDEQAERLVALGGSPLAAPADLARYSTVQVPQETVRDARTQVADLVQDLSRVGKGYRDDSQACDEANDPVTADMYNGYAATIDKIRWMLQAIMDDERLD | soluble
9 | MGSSHHHHHHSSGTIEGRMIRLTDNRPIGFIDSGVGGLTVVKEALKQLPNENILFVGDTARCPYGPRPAEQVIQYTWEMTDYLVEQGIKMLVIACNTATAVALEEIKAALSIPVIGVILPGTRAAVKKTQNKQVGIIGTIGTVKSQAYEKALKEKVPELTVTSLACPKFVSVVESNEYHSSVAKKIVAETLAPLTTKKIDTLILGCTHYPLLRPIIQNVMGENVQLIDSGAETVGEVSMLLDYFNLSNSPQNGRTLCQFYTTGSAKLFEEIAEDWLGIGHLNVEHIELGGK | soluble
10 | MQLQKLVNMFGGDLTRRYGQKVHKLTLHGGFSCPNRDGTIGRGGCTFCNVASFADEAHEHRSIAEQLAHQANLVNRAKRYLAYFQAYTSTFAEVQVLRSMYQQAVSQANIVGLCVGTRPDCVPDAVLDLLCEYKDQGYEVWLELGLQTAHDKTLHRINRGHDFACYQRTTQLARQRGLKVCSHLIVGLPGEGQAECLQTLERVVETGVDGIKLHPLHIVKGSIMAKAWEAGRLNGIELEDYTLTAGEMIRHTPPEVIYHRISASARRPTLLAPLWCENRWTGMVELDRYLNEHGVQGSALGRPWLPPTELEHHHHHH | not soluble
11 | MKYTFLLLCAIFGCTLAMRQQSVAVSGKLMCGSKPASGVKVKLWDEDDGPDPDDVLDEGFTNNDGTFRLEGSERELTNIDPVFKVYHDCDDGIIPGQRKIKFRIPNKYISAGGRAQKTFEIGVLNLETIFPKEERDLL | not soluble
12 | MLSEEDVHTNSYAGRTVAVMEQPDLFSDDCDEINLGNEDTPPSKLRLHTTEEPKESSSPAVINSIEDHDQYVGNDNHYAQISPEPALSNFKVTMREFEKRGDGMNAYIVYKLETEVSGVVGYTKQHYETWRRFSDFLGLHGKIVEKYLAKGIVIPQPPEKSISALTKTKTNSDPAMSREVGIQRARQLERYICRLIQHPRMRNDCDVRDFLTIESDLPKAVQTAALSSFGVKKIFKNFQVVFSKMAFHMEEGDRWFEQVQSQVDELDEALRKLYTVTETLVASRRDMATSGEQLGKALSMLAACEESTSLSRALSSLTDVTENVSAVYGKQAEVDNSKFSESIYEYIMLISALKDVFGERVRAWQQWQDAQQTLARKRDQKTKIDLSAGGRNERSDQLKGEIEDTVQKMDQLEQHFIELSKAIREEVARFDADRKQDMKKMLVEYMESMIHTHTELLHLWEKFEPEANNIRV | not soluble
13 | MGSDKIHHHHHHMDVIDAVNRRMSVRAFKPDPVDAGLIRDLLEAAARAPSGGNLQPWRVQVVGGAPLEALKAAMLQRVASPDPTEYDVYPANLWEPLRSRRFQVGEDMYGALGIPREDKLQRLQWFANNGQGFGAPVQLFFSIDRRCGPPQWSDVGMLMQTFMLLAVERGLDTCPQEFWSHYNKLVDEHVGLPEGHMLFSGMALGYRDADAPVNNFRSRRAPFEEWAELKGF | not soluble
14 | MAHIVIVGAGLGGLPTAYELRHILPKQHQVTVISETPYFTFIPSLPWVAMGLTSLESIQVSLQQRLKQKGINWILGRVDYLNPQNQKISLGEQSISYDYLIIATGAELALDAVAGLGPDGYTQSVCNPHHAIKAFQAWQNFLLAPGPLVVGALPKTSCLGPAYEFTLLADYVLRKQGLREQVSITFVTPEPYAGHLGIGGMANSAELVTKFMAERGVEVIENVAVTAIEANQIHLGNGRVLPFAYSMLLPPFRGPRFVRQVPGLSNQDGFIPVLPTYRHPEYASIYAVGVVVEIKPSEVTPLPLGVPKTGQMTEAMGMAVAHNIAIELGVFSAPPVTPTLDAICFADFGNSGILFLANPVLPDLATGKRRRAVALSGAWVTWAKAAFERYFLAKMRFGTAVPWFEKLALKLLGLSLVAPLAVKSSRNISQENYLEHHHHHH | not soluble
15 | MGSDKIHHHHHHMGVDPFERNKILGRGINIGNALEAPNEGDWGVVIKDEFFDIIKEAGFSHVRIPIRWSTHAYAFPPYKIMDRFFKRVDEVINGALKRGLAVVINIHHYEELMNDPEEHKERFLALWKQIADRYKDYPETLFFEILNEPHGNLTPEKWNELLEEALKVIRSIDKKHTIIIGTAEWGGISALEKLSVPKWEKNSIVTIHYYNPFEFTHQGAEWVEGSEKWLGRKWGSPDDQKHLIEEFNFIEEWSKKNKRPIYIGEFGAYRKADLESRIKWTSFVVREMEKRRWSWAYWEFCSGFGVYDTLRKTWNKDLLEALIGGDSIE | not soluble
